Source: article PMC3629940, “Exploring the structure and function of Thermotoga maritima CorA reveals the mechanism of gating and ion selectivity in Co^2+/Mg^2+ transport” (Biochemical Journal, 2013)
Substitutions are numbered along the chain they refer to. In names and notes the source's numbering stands.

B1: Thermotoga maritima CorA N288L mutant (natural protein)
chain: MEEKRLSAKKGLPPGTLVYTGKYREDFEIEVMNYSIEEFREFKTTDVESVLPFRDSSTPTWINITGIHRTDVVQRVGEFFGIHPLVLEDILNVHQRPKVEFFENYVFIVLKMFTYDKNLHELESEQVSLILTKNCVLMFQEKIGDVFDPVRERIRYNRGIIRKKRADYLLYSLIDALVDDYFVLLEKIDDEIDVLEEEVLERPEKETVQRTHQLKRNLVELRKTIWPLREVLSSLYRDVPPLIEKETVPYFRDVYDHTIQIADTVETFRDIVSGLLDVYLSSVSNKTLEVMKVLTIIATIFMPLTFIAGIYGMNFEYMPELRWKWGYPVVLAVMGVIAVIMVVYFKKKKWL
notes: CorA of Thermotoga maritima with N288L; source: E. coli, overexpressed, purified (1% DDM solubilisation, Ni-NTA, TEV cleavage, Superdex 200)
B2: Thermotoga maritima CorA T299L mutant (natural protein)
chain: B1 chain with L288N, T299L
notes: CorA of Thermotoga maritima with T299L; source: E. coli, overexpressed, purified (1% DDM solubilisation, Ni-NTA, TEV cleavage, Superdex 200)
B3: Thermotoga maritima CorA T295L mutant (natural protein)
chain: B1 chain with L288N, T295L
notes: CorA of Thermotoga maritima with T295L; source: E. coli, overexpressed, purified (1% DDM solubilisation, Ni-NTA, TEV cleavage, Superdex 200)

Target: the molecule itself
Assay: SEC; size-exclusion chromatography of the mutants to verify channel intactness (Supplementary Figure S2); conditions of this run not told

Binding result, binds:
B1, B2, B3
